Molecular target: T1, apelin-17 (2)
T1 chain: KFRRQRPRLSHKGPMPF

B1: recombinant human neprilysin (rhNEP, Sino Biological) (protein)
chain: YDDGICKSSDCIKSAARLIQNMDATTEPCTDFFKYACGGWLKRNVIPETSSRYGNFDILRDELEVVLKDVLQEPKTEDIVAVQKAKALYRSCINESAIDSRGGEPLLKLLPDIYGWPVATENWEQKYGASWTAEKAIAQLNSKYGKKVLINLFVGTDDKNSVNHVIHIDQPRLGLPSRDYYECTGIYKEACTAYVDFMISVARLIRQEERLPIDENQLALEMNKVMELEKEIANATAKPEDRNDPMLLYNKMTLAQIQNNFSLEINGKPFSWLNFTNEIMSTVNISITNEEDVVVYAPEYLTKLKPILTKYSARDLQNLMSWRFIMDLVSSLSRTYKESRNAFRKALYGTTSETATWRRCANYVNGNMENAVGRLYVEAAFAGESKHVVEDLIAQIREVFIQTLDDLTWMDAETKKRAEEKALAIKERIGYPDDIVSNDNKLNNEYLELNYKEDEYFENIIQNLKFSQSKQLKKLREKVDKDEWISGAAVVNAFYSSGRNQIVFPAGILQPPFFSAQQSNSLNYGGIGMVIGHEITHGFDDNGRNFNKDGDLVDWWTQQSASNFKEQSQCMVYQYGNFSWDLAGGQHLNGINTLGENIADNGGLGQAYRAYQNYIKKNGEEKLLPGLDLNHKQLFFLNFAQVWCGTYRPEYAVNSIKTDVHSPGNFRIIGTLQNSAEFSEAFHCRKNSYMNPEKKCRVW
How did the Km turn out when B1 was run?
Its Km is 190 µM.

What about the kcat (1/S) of the same protein?
Its kcat (1/S) is 3.4 1/S.

And the kcat/Km (1/MS)?
Its kcat/Km (1/MS) is 18000 1/MS.

From US20200239537
